From patent publication US20130189259A1 (INSERM INSTITUT NATIONAL DE LA SANTE ET DE LA RECHERCHE …, published 2013) come the findings set out here.

Several values for one entry are separate records, joined by “and”; a condition that tells them apart may be missing. Equal values may be shown once.

In test [1] the target is human glycoprotein VI on human platelets (human) (UniProt Q9HCN6). In words: flow cytometry of human platelets with bacterial periplasmic extract, FITC-coupled anti-c-myc antibody [upper panel]. On the technique in general: A flow cytometer gives signals particle by particle.
Test [2] shares this target. In words: flow cytometry of washed human platelets with an irrelevant scFv, FITC-coupled anti-c-myc IgG [top panel].
The target is the same in test [3]. In words: flow cytometry, periplasmic extract on human platelets, FITC anti-c-myc.
Test [4] has as its target T1, recombinant soluble human GPVI (GPVI-Fc) (human, UniProt Q9HCN6 21-267).
T1 construct: extracellular domain; also called soluble recombinant GPVI; purified GPVI; not shown: human Ig Fc domain
T1 sequence (looked up): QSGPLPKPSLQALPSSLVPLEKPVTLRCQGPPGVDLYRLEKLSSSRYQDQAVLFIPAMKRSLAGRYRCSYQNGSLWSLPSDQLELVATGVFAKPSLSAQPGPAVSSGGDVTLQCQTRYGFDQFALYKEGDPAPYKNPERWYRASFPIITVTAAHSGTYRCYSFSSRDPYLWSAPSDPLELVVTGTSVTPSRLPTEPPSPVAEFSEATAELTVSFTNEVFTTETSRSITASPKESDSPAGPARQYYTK
Briefly: inhibition of GPVI-Fc binding to immobilized collagen, ELISA. Here is the method: (§1) FIG. 9. Inhibition of GPVI binding to immobilized collagen. GPVI-Fc was incubated on immobilized collagen in the presence of increasing amounts of antibodies: scFv 9O12.2 (triangle), or pFab (square) (A): 2 μg of GP VI-Fc; (B): 4 μg of GPVI-Fc Bound GPVI-Fc was detected using an HRP coupled anti-Fc IgG.
A general note: In an ELISA, binding on a coated surface is turned into a signal by an enzyme label.

Test [5] deals with T1, recombinant soluble human GPVI (GPVI-Fc). In words: SPR (BIAcore 2000), GPVI-Fc immobilized on CM5, second series. On the procedure:
(§2) Binding of the anti-GPVI scFv to recombinant GPVI-Fc is analyzed with surface plasmon resonance using a BIAcore 2000 system (Uppsala, Sweden). Binding studies is performed with scFv 9O12, Proteolytic Fab and parental IgG.
(§3) Recombinant GPVI-Fc is immobilized (˜600 RU) onto a Carboxy-Methyl Dextran CM5 sensor chip using the amine coupling method (Wizard procedure). Antibody is then passed over the immobilized recombinant GPVI-Fc in HBS-EP buffer (0.01 M HEPES pH 7.4, 0.15 M NaCl, 0.005% polysorbate 20 (v/v)) at a flow rate of 20 μl/min at 25° C. Kinetic constants (kₐ, kd) and affinity are determined using BIAevaluation version 3.1 software, by fitting data to binding model. HBS-EP is the running buffer. 10 mM glycine-HCl pH 2.5 injected for 30 s at 20 μl/min is the regeneration buffer. All reagents and buffers used are from Biacore.
Background: Surface plasmon resonance follows binding to a sensor surface in real time, without labels.

The target is the same in test [6]. Briefly: SPR (BIAcore 2000), GPVI-Fc immobilized on CM5, first series. On the procedure:
as §2, §3

Test [7] shares this target. In words: blocking ELISA: 4 µg GPVI-Fc on immobilized collagen with increasing antibody fragment; blocked ligand: fibrillar type I collagen; bound GPVI-Fc detected with HRP-coupled anti-Fc. Here is the method:
as §1

Test [8] shares this target. Briefly: competition ELISA on GPVI-Fc coated plates; competitor: scFv 9O12.2 at a fixed concentration (60 µg/mL in the legend, 100 µg/ml in the methods), bound scFv detected with HRP-coupled anti-c-myc.
For test [9] the target is unchanged. Briefly: SPR against immobilized GPVI (procedure as in Example 1).

Regarding “irrelevant scFv (c-myc tagged negative control)”, the % positive platelets (FITC count) was 0.03% in [1] and 0.17% in test [2]. Further, in [3], the % positive platelets was 0.17%.

B1: murine single chain variable fragment scFv 9O12.2 (VH-(Gly4Ser)3-VL, spacer, c-myc flag) (scFv)
scFv: QVQLQESGAELVKPGASVKMSCKASGYTFTSYNMHWVKQTPGQGLEWIGGIYPGNGDTSFNQKFKGKATLTADKSSRTAYMQLSSLTSEDSAVYYCARGTVVGDWYFDVWGAGTTLTVSSGGGGSGGGGSGGGGSDVLMTQTPLSLPVSLGDQASISCRSSQSLENSNGNTYLNWYLQKPGQSPQLLIYRVSNRFSGVLDRFSGSGSGTDFTLKISRVEAEDLGVYFCLQLTHVPWTFGGGTKLEIKRSRVTVSSEQKLISEEDLN
notes: Made in the E. coli periplasm through a pelB leader; Tested as periplasmic extract or after purification on GPVI-sepharose; The monomer was isolated by size exclusion for the aggregation assay; also called mscFv 9O12.2; mscFv 9O12
The term IC50 denotes the concentration that gives 50% inhibition. Usually Kd stands for the free concentration of one partner at which half of the binding sites on the other are occupied at equilibrium, for simple one-to-one binding. For orientation: koff means a measure of how fast the partners let go of each other. For orientation: kon means the rate constant with which the complex forms. With B1, the IC50 in test [4] was ~1.17 µg/mL and ~42 µM. In [5], the Kd turned out to be 2.6 nM, the dissociation rate constant (koff) amounted to 0.00017 s⁻¹ and the kon was 65000 M⁻¹ s⁻¹. For the same molecule, the Kd in test [6] came to 2.5 nM. The “IC50 (read off the curve)” value in test [7] is around 4 µg/mL.

B2: 9O12.2 Fab fragment prepared by papain digestion of the parental IgG (Fab, V domains shown)
VH: QVQLQESGAELVKPGASVKMSCKASGYTFTSYNMHWVKQTPGQGLEWIGGIYPGNGDTSFNQKFKGKATLTADKSSRTAYMQLSSLTSEDSAVYYCARGTVVGDWYFDVWGAGTTLTVSS
VL: DVLMTQTPLSLPVSLGDQASISCRSSQSLENSNGNTYLNWYLQKPGQSPQLLIYRVSNRFSGVLDRFSGSGSGTDFTLKISRVEAEDLGVYFCLQLTHVPWTFGGGTKLEIK
notes: Papain Fab of the murine IgG1 kappa antibody; also called Fab 9O12.2; Fab 9O12
As to B2, the IC50 in test [4] is 2.1 µg/mL and 15 nM. The Kd was 2.3 nM in test [5] and 4.5 nM in test [6]. The “IC50 (read off the curve)” value in test [7] was around 7 µg/mL.

B3: 9O12.2 monoclonal anti-human GPVI antibody (murine IgG1, kappa) (antibody, V domains shown)
VH: B2 VH
VL: B2 VL
notes: The VL is therefore written as 136-247; also called 9O12.2 IgG; IgG 9O12.2
Consider B3, for which the values for the Kd in test [5] and in [6] were 4 nM and 6.5 nM, respectively. Further, the “IC50 (read off the curve)” value in test [8] is around 20 µg/mL.

B4: second optimized humanized scFv 9O12.2 fragment, hscFv 9O12.2(2) (scFv)
scFv: QVQLQESGAEVKKPGASVKVSCKASGYSFTSYNMHWVRQAPGQRLEWMGGIYPGNGDTSFNQKFKGKATLTADKSSRTAYMGLSSLRPEDTAVYYCARGTVVGDWYFDVWGQGTLVTVSSGGGGSGGGGSGGGGSDVLMTQTPLSLPVSLGDQASISCRSSQSLENSNGNTYLNWYLQKPGQSPQLLIYRVSNRFSGVLDRFSGSGSGTDFTLTISSLQPEDFAIYYCLQLTHVPWTFGGGTKVEIKRSRVTVSSDQKLISEEDLN
notes: Murine VL FR1 and FR2 are kept; Detected through its c-myc flag
For B4, in [9], the Kd was determined as 3.2 nM, the koff was found to be 0.000186 s⁻¹ and the kon is 58000 M⁻¹ s⁻¹.
